Tests used:
[1] = target: FCEH-bound IgE (human IgE held on FcεRI) (human, UniProt P01854 1-546; P12319 26-257); experiment: cell-based or functional assay
[2] = target: T1, membrane IgE on U266 B1 cells (human, UniProt P01854 1-546); experiment: FACS on U266 B1 cells (membrane IgE+)
T1 construct: whole, on cells; also called Membrane IgE on U266BL; mIgE
Description: c. […] Cells are added to 400 μl FACS buffer containing propidium iodide at 2 μg/ml to stain dead cells.

[3] = target: T2, human IgE (U266 IgE) (human, UniProt P01854 1-546); experiment: 50% inhibition of IgE binding to FCEH (assay taken as that of Table 9)
T2 construct: mature; Purified from U266B1 cells or recombinant from 293 cells; the Scatchard assay used iodinated IgE of ND and PS allotypes; P01854 covers the constant region only; also called huIgE; U266 IgE standard
T2 sequence (P01854 whole entry): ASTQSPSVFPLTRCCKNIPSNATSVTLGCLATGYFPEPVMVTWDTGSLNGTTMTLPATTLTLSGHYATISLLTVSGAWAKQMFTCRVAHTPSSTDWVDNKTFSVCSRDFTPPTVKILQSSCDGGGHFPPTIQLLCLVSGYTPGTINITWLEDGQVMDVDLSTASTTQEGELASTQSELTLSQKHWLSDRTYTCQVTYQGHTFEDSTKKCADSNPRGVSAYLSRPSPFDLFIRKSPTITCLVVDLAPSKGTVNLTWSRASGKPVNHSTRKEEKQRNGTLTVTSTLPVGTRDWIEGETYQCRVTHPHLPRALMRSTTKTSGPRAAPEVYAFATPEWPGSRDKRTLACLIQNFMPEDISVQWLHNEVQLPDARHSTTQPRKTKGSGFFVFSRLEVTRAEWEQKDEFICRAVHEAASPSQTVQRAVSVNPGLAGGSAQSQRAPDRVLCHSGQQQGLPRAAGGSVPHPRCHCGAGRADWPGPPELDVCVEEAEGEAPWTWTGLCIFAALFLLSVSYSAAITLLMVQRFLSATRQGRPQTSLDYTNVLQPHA
Description: (§1) A 96-well assay plate (Manufn Nunc.) was coated with 0.05 ml of the FcεRI alpha chain IgG1 chimeric receptor in 1 μg/ml coating buffer ([…] carbonate/bicarbonate, pH 9.6). Assay was done for 12 hours at 4-8° C. The wells were aspirated and 250 μl blocking buffer (PBS—1% BSA pH 7.2) was added and incubated for one hour at 4° C. […] The FcεRI-coated wells were washed three times with PBS-0.05% Tween20, and then 50 μl from the sample wells were transferred and incubated with agitation for 30 minutes at 25° C. 50 μl/well of streptavidin-HRP diluted 1:5000 in assay buffer was incubated for 15 minutes with agitation and then the plate was washed as before. 50 μl/well of Microwell peroxidase substrate (Kirkgaard & Parry Laboratories) was added and color was developed for 30 minutes. The reaction was stopped by adding an equal volume of 1 normal HCl and the adsorbance measured at 450 nm.

[4] = target: T2, human IgE (U266 IgE); experiment: ratio of 50% inhibition concentrations
Description: as §1

T1 sequence (P01854 whole entry): as above
FCEH-bound IgE (human IgE held on FcεRI), sequence (P01854 whole entry, chain 1 of 2): as the sequence (P01854 whole entry) above
FCEH-bound IgE (human IgE held on FcεRI), sequence (P12319 26-257, chain 2 of 2): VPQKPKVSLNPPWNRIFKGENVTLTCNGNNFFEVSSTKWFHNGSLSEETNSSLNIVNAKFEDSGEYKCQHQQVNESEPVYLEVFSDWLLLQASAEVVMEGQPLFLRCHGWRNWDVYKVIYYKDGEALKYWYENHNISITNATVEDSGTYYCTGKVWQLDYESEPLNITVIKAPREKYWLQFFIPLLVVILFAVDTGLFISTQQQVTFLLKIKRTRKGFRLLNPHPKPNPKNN

PBL Histamine Release (EC50) [1]	EC50 [2]	IC50 [3]	Var. X / IgL1H1 [4]	Var. X / MaE11 [4]	Binder
> 10 µg/mL	1 µg/mL				MaE 13 murine anti-human IgE monoclonal antibody (antibody, murine IgG1; may hold only the variable regions) heavy: DVQLQESGPGLVKPSQSLSLTCTVTGYTITSDNAWNWIRQFPGNKLEWMGYINHSGTTSYNPSLKSRISITRDTSKNQFFLQLNSVTTEDTATYYCAWVVAYAMDYWGQGTSVTVSSAKTTPPSVYPLAR light: DIVMTQSQKFMSTSVGDRVSVTCKASQNVSSNVAWYQQKPGQSPKALIYSASYRYSGVPDRFTGSGSGTDFTLTISNVQSEDLAEYFCQQYYTYPLYTFGGGTKLEIKRADAAPTVSIFPPSTR
> 100 µg/mL	0.15 µg/mL	0.449 µg/mL	0.06 ratio	1 ratio	MaE 11 murine anti-human IgE monoclonal antibody (antibody, murine IgG1; they may hold only the variable regions) heavy: DVQLQESGPGLVKPSQSLSLACSVTGYSITSGYSWNWIRQFPGNKLEWMGSITYDGSSNYNPSLKNRISVTRDTSQNQFFLKLNSATAEDTATYYCARGSHYFGHWHFAVWGAGTTVTVSSAKTTPPSVYPLAR light: DIVLTQSPASLAVSLGQRATISCKASQSVDYDGDSYMNWYQQKPGQPPILLIYAASYLGSEIPARFSGSGSGTDFTLNIHPVEEEDAATFYCQQSHEDPYTFGAGTKLEIK

Reference: patent US20030044858A1 (Genentech, published 2003)
